Data: article PMC8678608, “A Novel Bispecific Antibody Targeting PD-L1 and VEGF With Combined Anti-Tumor Activities” (Frontiers in Immunology, 2021)
One block for each binder: values may come before it.

Legend:
human PD-L1 [1] = target: T1, human PD-L1 (Homo sapiens (Human)., UniProt Q9NZQ7); test: SPR; valence: HB0025 (300 RU), HB0023 (250 RU) or HB002.1T (200 RU) captured; 200 nM PD-L1 injected twice for 60 s, then 10 nM VEGF165 twice for 60 s; stoichiometric ratio from response units and molecular weights; running buffer pH 7.4; settings: both partners purified
T1 construct: human PD-L1, recombinant; also called PD-L1 monomer; programmed cell death-ligand 1; source: bought: ACRO Biosystems (449-9AWF1-RA)
T1 sequence (Q9NZQ7 19-238): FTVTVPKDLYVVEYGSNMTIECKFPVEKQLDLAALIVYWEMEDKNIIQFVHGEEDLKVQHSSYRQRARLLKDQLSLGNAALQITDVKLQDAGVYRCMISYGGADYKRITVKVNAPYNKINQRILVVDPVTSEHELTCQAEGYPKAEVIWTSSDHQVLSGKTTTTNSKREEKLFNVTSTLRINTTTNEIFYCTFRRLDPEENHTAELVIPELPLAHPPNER

human PD-L1 [2] = target: T1, human PD-L1; test: cell-based or functional assay
human PD-L1 [3] = target: T1, human PD-L1; test: SPR; as a1, but 10 nM human VEGF165 injected first to saturate VEGF binding by captured HB0025, then PD-L1 as analyte; settings: both partners purified
human PD-L1 [4] = target: T1, human PD-L1; test: SPR; Biacore 8K, 25 °C; antibody or fusion protein captured by anti-human IgG (Fc) on a CM5 chip; analyte (VEGF165 from 3 nM or PD-L1 from 50 nM, 2-fold titrations) injected 120 s, dissociation 1800 s, 30 μL/min; single-cycle kinetics, 1:1 model; no enhancement step (buffer); settings: both partners purified
human PD-L1 [5] = target: T1, human PD-L1; test: ELISA; plates coated with recombinant human PD-L1 or VEGF165 (100 ng/well, carbonate buffer); antibody 1 h at room temperature; detected with HRP goat anti-human Fc, TMB, 450 nm; settings: both partners purified
human VEGF165 protein [6] = target: T2, human VEGF165 protein (human); test: SPR; Biacore 8K, 25 °C; antibody or fusion protein captured by anti-human IgG (Fc) on a CM5 chip; analyte (VEGF165 from 3 nM or PD-L1 from 50 nM, 2-fold titrations) injected 120 s, dissociation 1800 s, 30 μL/min; single-cycle kinetics, 1:1 model; no enhancement step (buffer); settings: both partners purified
T2 construct: human VEGF-A, the 165-residue isoform VEGF165; also called VEGF dimer; source: bought: Sino Biological Inc. (11066-HNAH)

human VEGF165 protein [7] = target: T2, human VEGF165 protein; test: ELISA; plates coated with recombinant human PD-L1 or VEGF165 (100 ng/well, carbonate buffer); antibody 1 h at room temperature; detected with HRP goat anti-human Fc, TMB, 450 nm; settings: both partners purified

stoichiometry N (human PD-L1 [1]): ~1.7 PD-L1 monomers per HB0025
EC50 of the recovery of IL-2 secretion in a mixed lymphocyte reaction (DCs and PBMCs, 3.8 pM-25 nM antibody); blocks PD-1/PD-L1 (human PD-L1 [2]): ~509 pM
Kd (human PD-L1 [3]): 1.98 nM
koff (human PD-L1 [3]): 0.000395 s⁻¹
kon (human PD-L1 [3]): 200000 M⁻¹ s⁻¹
Kd (human PD-L1 [4]): 1.76 nM
koff (human PD-L1 [4]): 0.00051 s⁻¹
kon (human PD-L1 [4]): 290000 M⁻¹ s⁻¹
EC50 (human PD-L1 [5]): 0.67 nM
B1: HB0025 (anti-PD-L1/VEGFR1D2-Ig fusion protein) (bispecific antibody, V domains shown)
VH: QVQLVQSGAEVKKPGASVKVSCKASGYAFTGYTIHWVRQAPGQRLEWMGWFYPGSGTLKYSEKFQGRVTITRDKSLSTAYMELSSLRSEDTAVYYCARHGTGTLMAMDYWGQGTLVTVSS
VL: DVVMTQTPLSLSVTPGQPASISCKSSQSLANSYGNTYLSWYLHKPGQSPQLLIYGISNRFSGVPDRFSGSGSGTDFTLKISRVEAEDVGVYYCLQGTHQPPTFGQGTKLEIK
notes: soluble extracellular domain 2 of human VEGF receptor 1 (VEGFR1D2); humanized VH of the parent anti-PD-L1 antibody HB0023; human IgG1 heavy constant domains, as in the heavy chain of HB0023; IgG1-like mAb-Trap format; Clinical trial NCT04678908; also called bispecific antibody; BsAb; copies: 2 +

Kd (human VEGF165 protein [6]): 0.00111 nM
koff (human VEGF165 protein [6]): 5.03e-05 s⁻¹
kon (human VEGF165 protein [6]): 4.54e+07 M⁻¹ s⁻¹
EC50 (human VEGF165 protein [7]): 0.17 nM
B2: HB002.1T (VEGFR1D2-Ig fusion protein) (Fc fusion)
chain: SDTGRPFVEMYSEIPEIIHMTEGRELVIPCRVTSPNITVTLKKFPLDTLIPDGKRIIWDSRKGFIISNATYKEIGLLTCEATVNGHLYKTNYLTHRQTNTIID
modifications: Fc-dimerised fusion: D2 at the N-terminus of IgG Fc, with Fc and any linker left out. Limits are inferred from HB0025 numbering, assuming HB002.1T has the same D2. N36/N68 and the N99-T100 cleavage …
